Test results reported in paper doi:10.1101/433532.

Biological target: recombinant CSN^ΔCSNAP complex (eight subunits, WT CSN5) (UniProt Q13098)
Experiment: native MS

stoichiometry N: 1
Substance: CSNAP, recombinant subunit co-expressed in the CSN complex (natural protein)
